Laboratory results: patent US20260191974A1 (UNIVERSITY OF NORTH CAROLINA AT CHAPEL HILL, published 2026)
Bridges are numbered along the chain shown (N, C = ends). DBX = not defined here

Experiments:
[1] = biological target: T1, biotinylated B7-H3 (B7-H3b), immune checkpoint protein; test: JP5 alanine mutant library in mRNA display: background screen on beads, then selection on biotinylated B7-H3; NGS, enrichment in the selection over the input library
T1 construct: also called biotin immobilized B7-H3; streptavidin immobilized B7-H3
T1 sequence (Q5ZPR3 whole entry, species assumed, looked up): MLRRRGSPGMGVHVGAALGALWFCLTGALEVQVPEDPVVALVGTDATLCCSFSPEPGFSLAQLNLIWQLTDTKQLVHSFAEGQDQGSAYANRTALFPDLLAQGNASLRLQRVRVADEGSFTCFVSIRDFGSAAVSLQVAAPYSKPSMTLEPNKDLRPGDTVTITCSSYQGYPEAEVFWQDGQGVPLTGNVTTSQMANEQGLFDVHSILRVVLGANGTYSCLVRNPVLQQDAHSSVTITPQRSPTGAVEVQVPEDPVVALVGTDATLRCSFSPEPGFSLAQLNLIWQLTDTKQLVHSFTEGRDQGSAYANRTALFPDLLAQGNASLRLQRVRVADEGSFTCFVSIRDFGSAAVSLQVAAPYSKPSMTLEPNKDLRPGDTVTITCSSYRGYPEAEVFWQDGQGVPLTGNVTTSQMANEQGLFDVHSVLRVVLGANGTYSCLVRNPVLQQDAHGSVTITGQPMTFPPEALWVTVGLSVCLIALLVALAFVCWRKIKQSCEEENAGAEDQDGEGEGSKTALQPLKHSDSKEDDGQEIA
Description: FIGS. 17A-17B. JP5 alanine mutant library design and screen. (FIG. 17A) Each library member with the parent JP5 sequence on the top. JP5 was mutated at each residue to an Alanine. All library members, and JP5, were screened first against background components (magnetic beads) to remove nonspecific binders and then against biotinylated B7-H3 (see FIG. 14B). […] A value of >1 indicates stronger enrichment in the selection, whereas a value<1 indicates a stronger enrichment in the input library.
A single variant library of JP5 (FIG. 13A) and JP3 (FIG. 14A) was carried out. Each residue was mutated to include potentially 20/20 canonical amino acids. All library members were screened first against background components (magnetic beads) to remove nonspecific binders and then against biotinylated B7-H3 (FIG. 13B). […] The recovered material from the B7-H3 selection of JP5 and JP3 was sent for NGS (FIG. 15 and FIG. 16, respectively). In addition, JP5 was subjected to an alanine mutant scan (FIG. 17A). All library members were screened first against background components (magnetic beads) to remove nonspecific binders and then against biotinylated B7-H3 (see FIG. 13B). […] The selected AMs will be tested with surface plasmon resonance (SPR) to assess binding affinity.

human B7-H3 (hB7-H3) [2] = biological target: T2, human B7-H3 (hB7-H3) (human, UniProt Q5ZPR3 29-461, limits assumed); test: SPR; reduced (no disulfide bridge)
T2 construct: The construct is not described
T2 sequence (looked up): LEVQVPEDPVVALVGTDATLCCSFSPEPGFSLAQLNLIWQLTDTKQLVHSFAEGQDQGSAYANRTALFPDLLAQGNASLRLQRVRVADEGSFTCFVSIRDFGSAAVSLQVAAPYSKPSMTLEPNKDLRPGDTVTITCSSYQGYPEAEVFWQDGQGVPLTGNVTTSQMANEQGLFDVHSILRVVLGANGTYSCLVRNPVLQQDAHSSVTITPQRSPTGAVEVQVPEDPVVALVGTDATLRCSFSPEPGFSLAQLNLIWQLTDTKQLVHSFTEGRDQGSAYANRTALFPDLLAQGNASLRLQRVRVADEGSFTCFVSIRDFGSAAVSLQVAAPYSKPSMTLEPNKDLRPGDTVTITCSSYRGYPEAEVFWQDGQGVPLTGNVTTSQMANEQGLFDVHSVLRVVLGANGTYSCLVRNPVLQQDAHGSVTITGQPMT

human B7-H3 (hB7-H3) [3] = biological target: T2, human B7-H3 (hB7-H3); test: SPR; hB7-H3 as ligand on the chip, peptide as analyte
human B7-H3 (hB7-H3) [4] = biological target: T2, human B7-H3 (hB7-H3); test: SPR; oxidized (with disulfide bridge)
murine B7-H3 (mB7-H3) [5] = biological target: T3, murine B7-H3 (mB7-H3) (murine, UniProt Q8VE98 29-244, limits assumed); test: SPR; mB7-H3 as ligand on the chip, peptide as analyte
T3 construct: The construct is not described
T3 sequence (looked up): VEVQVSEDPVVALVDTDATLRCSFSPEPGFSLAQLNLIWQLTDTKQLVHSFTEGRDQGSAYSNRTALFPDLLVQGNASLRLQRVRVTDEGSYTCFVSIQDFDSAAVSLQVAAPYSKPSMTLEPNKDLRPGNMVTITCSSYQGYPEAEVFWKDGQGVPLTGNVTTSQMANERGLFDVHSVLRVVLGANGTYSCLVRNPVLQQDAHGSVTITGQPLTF

[6] = biological target: T1, biotinylated B7-H3 (B7-H3b), immune …; test: SPR, Biacore 8K single-cycle kinetics, biotinylated B7-H3 on NeutrAvidin chip, peptide as analyte
Description: Surface Plasmon Resonance (SPR) analysis. Binding kinetics between our selected peptide (and variants) and biotinylated B7-H3 (B7-H3b) were assessed through SPR analysis using a BIACORE 8K SPR system (GE Healthcare). The running buffer was 1×PBS pH7.5, 0.05% TWEEN® 20 and all analysis was carried out at 25° C. B7-H3b was loaded onto a NeutrAvidin SPR Chip (Series S Sensor Chip NA, 29407997, Cytiva) at a flow rate of […] to a surface density of 1000-1500 response units. Analyte was then injected over a series of five concentrations and quantified by BIACORE single-cycle kinetics method. For our selected peptide (B1.1) and the Met9Nle variant a range of 7.5, 15, 30, 60, 120 nM were run. For the linear variant concentrations of 50, 100, 200, 400, 800 nM were run. Binding sonograms were generated using a standard 1:1 binding kinetics model and kinetics constants determined using standard BIACORE evaluation software.

[7] = biological target: T1, biotinylated B7-H3 (B7-H3b), immune …; test: SPR (BIACORE 8K, single-cycle kinetics, 1:1 fit); biotinylated B7-H3 on a NeutrAvidin chip, peptide as analyte at 7.5-120 nM
Description: FIGS. 4A-4G. (FIG. 4A) Selection schematic detailing the selection process for identifying binders against B7-H3. (FIG. 4B) qPCR results of the mTG mediated B7-H3 selection. (FIG. 4C) B7-H3 selection results and complete NGS analysis of B7-H3 hits. (FIG. 4D) NGS data of the selection hits. […] Arrow indicates the peptide pursued for binding validation. (FIG. 4E) EIC ([M+2], 948.91 m/z) traces corresponding to the product of the mTG reaction with linear B1.1 peptide and the synthetic lactam, disulfide peptide. (FIG. 4F) Surface Plasmon Resonance (SPR) analysis of the selected peptide (B1.1), the Met9Nle variant, and the linear variant. […] The selected B1.1 and the Met9Nle variant were analyzed at analyte concentrations of 7.5, 15, 30, 60, 120 nM. The linear variant was analyzed at analyte concentrations of 50, 100, 200, 400, 800 nM. […] (FIG. 4G) Individual SPR curves. Fitted curve and raw data are shown.
Surface Plasmon Resonance (SPR) analysis. Binding kinetics between our selected peptide (and variants) and biotinylated B7-H3 (B7-H3b) were assessed through SPR analysis using a BIACORE 8K SPR system (GE Healthcare). […] Analyte was then injected over a series of five concentrations and quantified by BIACORE single-cycle kinetics method. […] Binding sonograms were generated using a standard 1:1 binding kinetics model and kinetics constants determined using standard BIACORE evaluation software.

human B7-H3 (hB7-H3) [8] = biological target: T2, human B7-H3 (hB7-H3); test: SPR
murine B7-H3 (mB7-H3) [9] = biological target: T3, murine B7-H3 (mB7-H3); test: SPR

B1: AM2 (peptide)
peptide: Ac-CWAIRDINGTRC-NH2
modifications: bridge 1-12; also: bracket C1-C12, bond type not given here
notes: Member of the JP5 alanine mutant library; also called JP5 alanine mutant 2
SELECTION/INPUT [1]: 1.4

B2: AM1 (peptide)
peptide: Ac-CATIRDINGTRC-NH2
modifications: bridge 1-12; also: bracket C1-C12, bond type not given here
notes: Member of the JP5 alanine mutant library; also called JP5 alanine mutant 1
SELECTION/INPUT [1]: 0.33

B3: reduced B1.1 (no disulfide bridge) (peptide)
peptide: WALQLCHSMFYTCKSG
modifications: no disulfide bridge (reduced cysteines C6 and C13); lactam bridge Q4-K14 and N-terminal acetylation as in B1.1
notes: also called reduced form of B1.1
Kd (human B7-H3 (hB7-H3) [2]): 0.198 µM
koff (human B7-H3 (hB7-H3) [3]): 14.7 s⁻¹
kon (human B7-H3 (hB7-H3) [3]): 7.44e+07 M⁻¹ s⁻¹

B4: AM6 (peptide)
peptide: Ac-CWTIRDANGTRC-NH2
modifications: bridge 1-12; also: bracket C1-C12, bond type not given here
notes: Member of the JP5 alanine mutant library; also called JP5 alanine mutant 6
SELECTION/INPUT [1]: 1.99

B5: AM3 (peptide)
peptide: Ac-CWTARDINGTRC-NH2
modifications: bridge 1-12; also: bracket C1-C12, bond type not given here
notes: Member of the JP5 alanine mutant library; also called JP5 alanine mutant 3
SELECTION/INPUT [1]: 0.309

B6: AM7 (peptide)
peptide: Ac-CWTIRDIAGTRC-NH2
modifications: bridge 1-12; also: bracket C1-C12, bond type not given here
notes: Member of the JP5 alanine mutant library; also called JP5 alanine mutant 7
SELECTION/INPUT [1]: 1.53

B7: AM10 (peptide)
peptide: Ac-CWTIRDINGTAC-NH2
modifications: bridge 1-12; also: bracket C1-C12, bond type not given here
notes: Member of the JP5 alanine mutant library; also called JP5 alanine mutant 10
SELECTION/INPUT [1]: 1.34

B8: B1.1, selected cyclic, disulfide peptide (bicyclic: lactam and disulfide), synthetic, without the N-terminal methionine (peptide)
peptide: WALQLCHSMFYTCKSG
modifications: N-terminal acetylation (ac); lactam (isopeptide) bridge Q4-K14; disulfide bond C6-C13
notes: Made by solid phase synthesis on Rink Amide resin; also called Selected B1.1; oxidized B1.1 (with disulfide bridge)
Kd (human B7-H3 (hB7-H3) [4]): 0.105 µM
koff (human B7-H3 (hB7-H3) [3]): 0.0267 s⁻¹
kon (human B7-H3 (hB7-H3) [3]): 253000 M⁻¹ s⁻¹
Kd (murine B7-H3 (mB7-H3) [5]): 0.161 µM
koff (murine B7-H3 (mB7-H3) [5]): 0.0176 s⁻¹
kon (murine B7-H3 (mB7-H3) [5]): 109000 M⁻¹ s⁻¹
Kd [6]: 0.0435 µM
koff [7]: 0.00674 s⁻¹
kon [7]: 155000 M⁻¹ s⁻¹

B9: AM5 (peptide)
peptide: Ac-CWTIRAINGTRC-NH2
modifications: bridge 1-12; also: bracket C1-C12, bond type not given here
notes: Member of the JP5 alanine mutant library; also called JP5 alanine mutant 5
SELECTION/INPUT [1]: 0.411

B10: AM4 (peptide)
peptide: Ac-CWTIADINGTRC-NH2
modifications: bridge 1-12; also: bracket C1-C12, bond type not given here
notes: Member of the JP5 alanine mutant library; also called JP5 alanine mutant 4
SELECTION/INPUT [1]: 0.58

B11: AM9 (peptide)
peptide: Ac-CWTIRDINGARC-NH2
modifications: bridge 1-12; also: bracket C1-C12, bond type not given here
notes: Member of the JP5 alanine mutant library; also called JP5 alanine mutant 9
SELECTION/INPUT [1]: 0.422

B12: AM8 (peptide)
peptide: Ac-CWTIRDINATRC-NH2
modifications: bridge 1-12; also: bracket C1-C12, bond type not given here
notes: Member of the JP5 alanine mutant library; also called JP5 alanine mutant 8
SELECTION/INPUT [1]: 0.338

B13: JP5, thioether (dibromoxylene) linked macrocyclic peptide from the DBX-mediated B7-H3 selection (peptide)
peptide: Ac-CWTIRDINGTRCG-NH2
modifications: linker 1-12 via DBX; reading uncertain
notes: also called JP5 variant
Kd (human B7-H3 (hB7-H3) [8]): 0.772 µM
Kd (murine B7-H3 (mB7-H3) [9]): 0.591 µM
koff (human B7-H3 (hB7-H3) [3]): 0.0966 s⁻¹
kon (human B7-H3 (hB7-H3) [3]): 125000 M⁻¹ s⁻¹
koff (murine B7-H3 (mB7-H3) [5]): 0.0605 s⁻¹
kon (murine B7-H3 (mB7-H3) [5]): 102000 M⁻¹ s⁻¹
